In patent US20180346600A1 (AJOU UNIVERSITY INDUSTRY ACADEMIC COOPERATION FOUNDATION, published 2018):

Key:
Experiment in all cases: flow cytometry of diploid yeast: MFI of Flag-tagged secreted FcCH3B held on displayed FcCH3A (anti-Flag mouse mAb and PE anti-mouse antibody), normalised to EW-RVT = 100 %
[1] = target: T1, displayed FcCH3A, A107 (K370E/K409W), on yeast cell surface (human, UniProt P0DOX5 227-449 = IgG part)
T1 construct: also called A107 CH3A chain (yeast)
T1 Fc: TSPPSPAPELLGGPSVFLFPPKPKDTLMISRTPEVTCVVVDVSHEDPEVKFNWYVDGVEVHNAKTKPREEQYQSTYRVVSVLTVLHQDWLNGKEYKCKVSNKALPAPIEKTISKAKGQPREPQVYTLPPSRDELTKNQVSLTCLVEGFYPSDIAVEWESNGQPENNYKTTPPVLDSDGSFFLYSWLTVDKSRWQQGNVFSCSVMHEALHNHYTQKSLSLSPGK

[2] = target: T2, displayed FcCH3A, A109 (K370M/K409W), on yeast cell surface (human, UniProt P0DOX5 227-449 = IgG part)
T2 construct: also called A109 CH3A chain (yeast)
T2 Fc: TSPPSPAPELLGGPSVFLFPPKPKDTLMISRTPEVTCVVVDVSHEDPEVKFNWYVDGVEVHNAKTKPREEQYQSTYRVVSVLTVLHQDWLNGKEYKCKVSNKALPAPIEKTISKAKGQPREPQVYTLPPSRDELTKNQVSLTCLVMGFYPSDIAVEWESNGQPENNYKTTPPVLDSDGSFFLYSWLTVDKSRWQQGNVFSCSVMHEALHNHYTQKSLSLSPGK

[3] = target: T3, displayed FcCH3A, A108 (K370E/K409W), on yeast cell surface (human, UniProt P0DOX5 227-449 = IgG part)
T3 construct: also called A108 CH3A chain (yeast)
T3 Fc: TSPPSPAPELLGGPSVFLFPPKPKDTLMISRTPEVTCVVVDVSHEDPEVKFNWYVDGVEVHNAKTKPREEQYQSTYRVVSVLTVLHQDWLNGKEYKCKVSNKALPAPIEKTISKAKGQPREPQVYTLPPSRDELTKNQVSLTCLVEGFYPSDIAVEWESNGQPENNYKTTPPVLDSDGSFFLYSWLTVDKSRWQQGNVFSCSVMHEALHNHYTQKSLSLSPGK

[4] = target: T4, displayed FcCH3A, B121 (D399E/K409W), on yeast cell surface (human, UniProt P0DOX5 227-449 = IgG part)
T4 construct: also called B121 CH3A chain (yeast)
T4 Fc: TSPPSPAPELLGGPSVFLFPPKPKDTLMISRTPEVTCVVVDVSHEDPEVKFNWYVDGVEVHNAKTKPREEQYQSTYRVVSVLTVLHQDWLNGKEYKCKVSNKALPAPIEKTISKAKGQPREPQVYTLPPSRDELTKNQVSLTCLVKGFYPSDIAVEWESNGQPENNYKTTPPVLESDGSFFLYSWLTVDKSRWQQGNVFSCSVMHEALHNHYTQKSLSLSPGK

[5] = target: T5, displayed FcCH3A, B168 (D399L/K409W), on yeast cell surface (human, UniProt P0DOX5 227-449 = IgG part)
T5 construct: also called B168 CH3A chain (yeast)
T5 Fc: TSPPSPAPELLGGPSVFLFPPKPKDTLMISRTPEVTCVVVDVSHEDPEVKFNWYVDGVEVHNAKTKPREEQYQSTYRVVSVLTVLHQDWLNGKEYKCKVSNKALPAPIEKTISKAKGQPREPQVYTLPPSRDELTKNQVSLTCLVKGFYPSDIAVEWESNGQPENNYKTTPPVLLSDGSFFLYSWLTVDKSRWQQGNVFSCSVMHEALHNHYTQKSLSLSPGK

[6] = target: T6, displayed FcCH3A, B135 (D399L/K409W), on yeast cell surface (human, UniProt P0DOX5 227-449 = IgG part)
T6 construct: also called B135 CH3A chain (yeast)
T6 Fc: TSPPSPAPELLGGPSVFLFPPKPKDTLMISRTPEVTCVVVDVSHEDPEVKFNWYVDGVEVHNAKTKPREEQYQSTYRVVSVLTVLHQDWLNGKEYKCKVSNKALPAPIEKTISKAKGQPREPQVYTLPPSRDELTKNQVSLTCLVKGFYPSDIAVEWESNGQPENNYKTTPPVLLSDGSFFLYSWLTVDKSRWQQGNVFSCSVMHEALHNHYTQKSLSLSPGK

[7] = target: T7, displayed FcCH3A, A146 (K370D/K409W), on yeast cell surface (human, UniProt P0DOX5 227-449 = IgG part)
T7 construct: also called A146 CH3A chain (yeast)
T7 Fc: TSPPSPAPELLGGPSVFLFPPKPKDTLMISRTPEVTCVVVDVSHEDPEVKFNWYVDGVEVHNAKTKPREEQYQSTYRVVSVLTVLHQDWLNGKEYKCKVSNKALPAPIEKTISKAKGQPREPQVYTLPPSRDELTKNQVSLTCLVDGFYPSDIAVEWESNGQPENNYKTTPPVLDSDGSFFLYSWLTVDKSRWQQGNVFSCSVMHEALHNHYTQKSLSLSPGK

B1: secreted FcCH3B, A107 (E357N/D399V/F405T), from yeast (other)
chain: TSPPSPAPELLGGPSVFLFPPKPKDTLMISRTPEVTCVVVDVSHEDPEVKFNWYVDGVEVHNAKTKPREEQYQSTYRVVSVLTVLHQDWLNGKEYKCKVSNKALPAPIEKTISKAKGQPREPQVYTLPPSRDNLTKNQVSLTCLVKGFYPSDIAVEWESNGQPENNYKTTPPVLVSDGSFTLYSKLTVDKSRWQQGNVFSCSVMHEALHNHYTQKSLSLSPGK
notes: also called A107 CH3B chain (yeast); not shown: flag-tag
[1]
  binding result: binds

B2: secreted FcCH3B, A109 (E357M/S364W/D399V/F405T), from yeast (other)
chain: TSPPSPAPELLGGPSVFLFPPKPKDTLMISRTPEVTCVVVDVSHEDPEVKFNWYVDGVEVHNAKTKPREEQYQSTYRVVSVLTVLHQDWLNGKEYKCKVSNKALPAPIEKTISKAKGQPREPQVYTLPPSRDMLTKNQVWLTCLVKGFYPSDIAVEWESNGQPENNYKTTPPVLVSDGSFTLYSKLTVDKSRWQQGNVFSCSVMHEALHNHYTQKSLSLSPGK
notes: also called A109 CH3B chain (yeast); not shown: flag-tag
[2]
  binding result: binds

B3: secreted FcCH3B, A108 (E357I/S364T/D399V/F405T), from yeast (other)
chain: TSPPSPAPELLGGPSVFLFPPKPKDTLMISRTPEVTCVVVDVSHEDPEVKFNWYVDGVEVHNAKTKPREEQYQSTYRVVSVLTVLHQDWLNGKEYKCKVSNKALPAPIEKTISKAKGQPREPQVYTLPPSRDILTKNQVTLTCLVKGFYPSDIAVEWESNGQPENNYKTTPPVLVSDGSFTLYSKLTVDKSRWQQGNVFSCSVMHEALHNHYTQKSLSLSPGK
notes: also called A108 CH3B chain (yeast); not shown: flag-tag
[3]
  binding result: binds

B4: secreted FcCH3B, B121 (K392E/D399V/F405T), from yeast (other)
chain: TSPPSPAPELLGGPSVFLFPPKPKDTLMISRTPEVTCVVVDVSHEDPEVKFNWYVDGVEVHNAKTKPREEQYQSTYRVVSVLTVLHQDWLNGKEYKCKVSNKALPAPIEKTISKAKGQPREPQVYTLPPSRDELTKNQVSLTCLVKGFYPSDIAVEWESNGQPENNYETTPPVLVSDGSFTLYSKLTVDKSRWQQGNVFSCSVMHEALHNHYTQKSLSLSPGK
notes: also called B121 CH3B chain (yeast); not shown: flag-tag
[4]
  binding result: binds

B5: secreted FcCH3B, B168 (K392G/K409M/D399V/F405T), from yeast (other)
chain: TSPPSPAPELLGGPSVFLFPPKPKDTLMISRTPEVTCVVVDVSHEDPEVKFNWYVDGVEVHNAKTKPREEQYQSTYRVVSVLTVLHQDWLNGKEYKCKVSNKALPAPIEKTISKAKGQPREPQVYTLPPSRDELTKNQVSLTCLVKGFYPSDIAVEWESNGQPENNYGTTPPVLVSDGSFTLYSMLTVDKSRWQQGNVFSCSVMHEALHNHYTQKSLSLSPGK
notes: also called B168 CH3B chain (yeast); not shown: flag-tag
[5]
  binding result: binds

B6: secreted FcCH3B, B135 (K392S/K409L/D399V/F405T), from yeast (other)
chain: TSPPSPAPELLGGPSVFLFPPKPKDTLMISRTPEVTCVVVDVSHEDPEVKFNWYVDGVEVHNAKTKPREEQYQSTYRVVSVLTVLHQDWLNGKEYKCKVSNKALPAPIEKTISKAKGQPREPQVYTLPPSRDELTKNQVSLTCLVKGFYPSDIAVEWESNGQPENNYSTTPPVLVSDGSFTLYSLLTVDKSRWQQGNVFSCSVMHEALHNHYTQKSLSLSPGK
notes: also called B135 CH3B chain (yeast); not shown: flag-tag
[6]
  binding result: binds

B7: secreted FcCH3B, A146 (E357M/D399V/F405T), from yeast (other)
chain: TSPPSPAPELLGGPSVFLFPPKPKDTLMISRTPEVTCVVVDVSHEDPEVKFNWYVDGVEVHNAKTKPREEQYQSTYRVVSVLTVLHQDWLNGKEYKCKVSNKALPAPIEKTISKAKGQPREPQVYTLPPSRDMLTKNQVSLTCLVKGFYPSDIAVEWESNGQPENNYKTTPPVLVSDGSFTLYSKLTVDKSRWQQGNVFSCSVMHEALHNHYTQKSLSLSPGK
notes: also called A146 CH3B chain (yeast); not shown: flag-tag
[7]
  binding result: binds
